Biological target: T1, full-length human LOX-1 fused to yellow fluorescent protein, expressed on CHO-K1 cells (human, UniProt P78380 1-273)
T1 construct: LOX-1 (low-density oxidized lipoprotein lectin-like receptor 1), human, full length, on transfected CHO-K1 cells; pEYFP-N1 usually places the YFP at the C-terminus of the insert (surmise); also called low-density oxidized lipoprotein lectin-like receptor 1; LOX-1-expressing cells; source: CHO-K1 cells, transiently transfected (pEYFP-N1 vector), on live cells
Experiment: flow cytometry on cells; CHO-K1 cells transiently expressing human LOX-1-YFP mixed with NadA3 protein (200 µg/ml) for 30 min at 37°C; detected with mouse polyclonal anti-NadA3 and APC-conjugated secondary antibody
Conditions: one partner purified

B1: NadA3 24–170 K68A K69A D70A mutant (domain or fragment)
chain: ATNDDDVKKAATVAIAAAYNNGQEINGFKAGETIYDIDEDGTITAAAATAADVEADDFKGLGLKKVVTNLTKTVNENKQNVDAKVKAAESEIEKLTTKLADTDAALADTDAALDATTNALNKLGENITTFAEETKTNIVKIDEKLEA
notes: NadA3, N. meningitidis serogroup B strain 2996, UniProt Q8KH85, residues 24-170 with K68A, K69A and D70A
percent doubly positive cells (LOX-1 and NadA): 49.8%
